Experimental findings from article PMC5282554, “The intervening domain from MeCP2 enhances the DNA affinity of the methyl binding domain and provides an independent DNA interaction site” are described below.

Settings in all cases: protein: recombinant; tags: His-tag removed (PreScission); blunt
Data set [1] has as its target T1, MeCP2 NTD-MBD-ID (UniProt P51608 1-206). The data set can be described thus: ITC; pH 7; ID site of two-site model; ITC: Tris 50 mM, pH 7, 20 °C (also 15 and 17.5 °C; Pipes or phosphate 50 mM, pH 7), no added NaCl unless stated; protein 3-5 uM in cell, dsDNA 50 uM titrant. For orientation: ITC needs no label: the signal is the heat of the interaction.
Data set [2] deals with T1, MeCP2 NTD-MBD-ID. Briefly: ITC; pH 7; MBD site of two-site model; ITC: Tris 50 mM, pH 7, 20 °C (also 15 and 17.5 °C; Pipes or phosphate 50 mM, pH 7), no added NaCl unless stated; protein 3-5 uM in cell, dsDNA 50 uM titrant.
The next data set concerns the target MeCP2 NTD-MBD (UniProt P51608 1-162). Briefly: ITC; pH 7; ITC: Tris 50 mM, pH 7, 20 °C (also 15 and 17.5 °C; Pipes or phosphate 50 mM, pH 7), no added NaCl unless stated; protein 3-5 uM in cell, dsDNA 50 uM titrant.
The target of a further data set is MeCP2 MBD (UniProt P51608 78-162). The description is as above.

B1: BDNF promoter IV 45 bp unmethylated (dsDNA)
DNA 1: GCCATGCCCTGGAACGGAACTCTCCTAATAAAAGATGTATCATTT
DNA 2: AAATGATACATCTTTTATTAGGAGAGTTCCGTTCCAGGGCATGGC
On to B1, for which the dissociation constant (Kd) with MeCP2 NTD-MBD-ID [1] worked out at 250 nM; in the data set with MeCP2 NTD-MBD-ID [2] it was 1.9 nM; with MeCP2 NTD-MBD, 210 nM; in the data set with MeCP2 MBD, 450 nM.

B2: BDNF promoter IV 45 bp mCpG (dsDNA)
DNA 1: B1 DNA 1
DNA 2: B1 DNA 2
modifications: 5-methylcytosine at C15 of strand 1 and C30 of strand 2 (symmetric mCpG)
Regarding B2, the Kd worked out at 62 nM with MeCP2 NTD-MBD-ID [1], 0.56 nM in the data set with MeCP2 NTD-MBD-ID [2], 90 nM with MeCP2 NTD-MBD and 240 nM with MeCP2 MBD.

As a reminder, the Kd is the constant that tells how readily two partners part at equilibrium.
